This passage reports ECL signal results from patent US20120058906A1.

The target in test [1] is rHuman CD44/Fc Chimera, CF (R&D Systems Cat#3660-CD) (human) (UniProt P16070). Briefly: ECL (MSD multi-spot) titration, Fab at 0.25 uM; blank spot 6344.
Test [2] has the same target. Briefly: ECL (MSD multi-spot) titration, Fab at 0.00391 uM; blank spot 576.
The target is the same in test [3]. Put plainly: ECL (MSD multi-spot) titration, Fab at 0.01563 uM; blank spot 906.
The target is the same in test [4]. Put plainly: ECL (MSD multi-spot) titration, Fab at 0.0625 uM; blank spot 1738.
For test [5] the target is unchanged. Put plainly: MSD ECL multi-spot assay, antigen spotted on plate, Fab 0.25 uM; blank spot 3693.
For test [6], the target named is rHuman HGF R/c-MET/Fc Chimera, CF (R&D Systems Cat#358-MT/CF) (human) (UniProt P08581). The description is as above.
In test [7] the target is Recombinant Human DLL4 (R&D Systems Cat#1506-D4/CF) (human) (UniProt Q9NR61). Briefly: MSD ECL multi-spot assay, antigen spotted on plate, Fab […]; blank spot 1129.
The target of test [8] is rHuman CD44/Fc Chimera, CF (R&D Systems Cat#3660-CD) (human) (UniProt P16070). The test is described as above.
The target of test [9] is rHuman EGF R/Fc Chimera, CF (R&D Systems Cat#344-ER) (human) (UniProt P00533). Described as above.
Test [10] addresses rHuman ErbB2/Fc Chimera, CF (R&D Systems Cat#1129-ER) (human) (UniProt P04626). The test is described as above.
Test [11] deals with rHuman Erythropoietin R/Fc Chimera, CF (R&D Systems Cat#963-ER) (human) (UniProt P19235). Described as above.
Chain of rHuman Erythropoietin R/Fc Chimera, CF (R&D Systems Cat#963-ER) (human) (P19235 25-250, change not shown): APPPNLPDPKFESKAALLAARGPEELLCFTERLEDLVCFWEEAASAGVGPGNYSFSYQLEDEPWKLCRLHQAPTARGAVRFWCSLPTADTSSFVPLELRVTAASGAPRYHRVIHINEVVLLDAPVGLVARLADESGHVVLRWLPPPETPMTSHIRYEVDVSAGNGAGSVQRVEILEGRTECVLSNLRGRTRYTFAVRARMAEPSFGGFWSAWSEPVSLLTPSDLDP
For test [12], the target named is rHuman HGF R/c-MET/Fc Chimera, CF (R&D Systems Cat#358-MT/CF) (human) (UniProt P08581). The test is described as above.
Test [13] has as its target rHuman Notch-1/Fc Chimera, CF (R&D Systems Cat#3647-TK) (human) (UniProt P46531). Described as above.
Test [14] addresses Recombinant Human DLL4 (R&D Systems Cat#1506-D4/CF) (human) (UniProt Q9NR61). Briefly: ECL (MSD Multi-Spot) titration, antigen spotted on plate; Fab […]; blank spot 4357.
Test [15] has as its target rHuman CD44/Fc Chimera, CF (R&D Systems Cat#3660-CD) (human) (UniProt P16070). The test is described as above.
Test [16] addresses rHuman EGF R/Fc Chimera, CF (R&D Systems Cat#344-ER) (human) (UniProt P00533). Described as above.
Test [17] deals with rHuman ErbB2/Fc Chimera, CF (R&D Systems Cat#1129-ER) (human) (UniProt P04626). The test is described as above.
In test [18] the target is rHuman Erythropoietin R/Fc Chimera, CF (R&D Systems Cat#963-ER) (human) (UniProt P19235). Described as above.
Test [19] has as its target rHuman HGF R/c-MET/Fc Chimera, CF (R&D Systems Cat#358-MT/CF) (human) (UniProt P08581). Described as above.
Test [20] addresses rHuman Notch-1/Fc Chimera, CF (R&D Systems Cat#3647-TK) (human) (UniProt P46531). The test is described as above.
Test [21] concerns the target Recombinant Human DLL4 (R&D Systems Cat#1506-D4/CF) (human) (UniProt Q9NR61). Briefly: ECL (MSD Multi-Spot) titration, antigen spotted on plate; Fab 0.0624 µM; blank spot 960.
The target of test [22] is rHuman CD44/Fc Chimera, CF (R&D Systems Cat#3660-CD) (human) (UniProt P16070). The test is described as above.
Test [23] concerns the target rHuman EGF R/Fc Chimera, CF (R&D Systems Cat#344-ER) (human) (UniProt P00533). Described as above.
Test [24] addresses rHuman ErbB2/Fc Chimera, CF (R&D Systems Cat#1129-ER) (human) (UniProt P04626). The test is described as above.
Test [25] concerns the target rHuman Erythropoietin R/Fc Chimera, CF (R&D Systems Cat#963-ER) (human) (UniProt P19235). The test is described as above.
The target in test [26] is rHuman HGF R/c-MET/Fc Chimera, CF (R&D Systems Cat#358-MT/CF) (human) (UniProt P08581). The test is described as above.
For test [27], the target named is rHuman Notch-1/Fc Chimera, CF (R&D Systems Cat#3647-TK) (human) (UniProt P46531). The description is as above.
The target of test [28] is Recombinant Human DLL4 (R&D Systems Cat#1506-D4/CF) (human) (UniProt Q9NR61). Briefly: ECL (MSD Multi-Spot) titration, antigen spotted on plate; Fab 0.312 µM; blank spot 1977.
Test [29] has as its target rHuman CD44/Fc Chimera, CF (R&D Systems Cat#3660-CD) (human) (UniProt P16070). The test is described as above.
The target in test [30] is rHuman EGF R/Fc Chimera, CF (R&D Systems Cat#344-ER) (human) (UniProt P00533). The description is as above.
In test [31] the target is rHuman ErbB2/Fc Chimera, CF (R&D Systems Cat#1129-ER) (human) (UniProt P04626). The description is as above.
Test [32] has as its target rHuman Erythropoietin R/Fc Chimera, CF (R&D Systems Cat#963-ER) (human) (UniProt P19235). The description is as above.
The target in test [33] is rHuman HGF R/c-MET/Fc Chimera, CF (R&D Systems Cat#358-MT/CF) (human) (UniProt P08581). Described as above.
Test [34] deals with rHuman Notch-1/Fc Chimera, CF (R&D Systems Cat#3647-TK) (human) (UniProt P46531). The test is described as above.
For test [35], the target named is Recombinant Human DLL4 (R&D Systems Cat#1506-D4/CF) (human) (UniProt Q9NR61). Put plainly: MSD ECL multi-spot plate, antigen immobilized; Fab 42.112 nM; blank spot 323.
The target of test [36] is rHuman Erythropoietin R/Fc Chimera, CF (R&D Systems Cat#963-ER) (human) (UniProt P19235). The description is as above.
Test [37] has as its target rHuman HGF R/c-MET/Fc Chimera, CF (R&D Systems Cat#358-MT/CF) (human) (UniProt P08581). Described as above.
The target of test [38] is rHuman Notch-1/Fc Chimera, CF (R&D Systems Cat#3647-TK) (human) (UniProt P46531). Described as above.
For test [39], the target named is Recombinant Human DLL4 (R&D Systems Cat#1506-D4/CF) (human) (UniProt Q9NR61). Put plainly: MSD ECL multi-spot plate, antigen immobilized; Fab 421.12 nM; blank spot 639.
In test [40] the target is rHuman Erythropoietin R/Fc Chimera, CF (R&D Systems Cat#963-ER) (human) (UniProt P19235). Described as above.
Test [41] concerns the target rHuman HGF R/c-MET/Fc Chimera, CF (R&D Systems Cat#358-MT/CF) (human) (UniProt P08581). The description is as above.
For test [42], the target named is rHuman Notch-1/Fc Chimera, CF (R&D Systems Cat#3647-TK) (human) (UniProt P46531). Described as above.
For test [43], the target named is rHuman Erythropoietin R/Fc Chimera, CF (R&D Systems Cat#963-ER) (human) (UniProt P19235). Briefly: ECL (MSD multi-spot) screen, antigen spotted on plate, Fab at 0.42 uM; blank spot 450.

In the case of “Fab VH1-46_IGHD2-15*01_IGHJ2*01 & L2_IGKJ1*01”, the ECL signal in [1] is 23000; in test [2], 1300; in [3] it was 3180; in test [4], 6750; in test [5], 10400; in test [6], 5910.

Consider “Fab VH1-46_IGHD7-27*01_IGHJ2*01 & L6_IGKJ1*01”, for which the ECL signal is 3770 in [7]; 2280 in [8]; 2500 in [9]; 2450 in test [10]; 4130 in test [11]; 3120 in [12]. Further, the ECL signal is 3950 in test [13]; 10900 in test [14]; 7600 in [15]; 7830 in [16]; 7580 in test [17]; 9480 in [18]. Moreover, the ECL signal is 10300 in test [19]; 9450 in [20]; 2580 in [21]; 2110 in test [22]; 2420 in test [23]; 2150 in test [24]. Further, the ECL signal was found to be 2680 in [25]; 2450 in test [26]; 2350 in test [27]; 5480 in [28]; 4170 in test [29]; 4330 in [30]. The ECL signal came out at 3660 in test [31], 5020 in [32], 4690 in test [33] and 4460 in test [34].

In the case of “Fab VH3-23_IGHD3-10*01>1′_IGHJ3*01 & O12_IGKJ1*01”, the ECL signal is 404 ECL signal in test [35]; 759 ECL signal in [36]; 565 ECL signal in [37]; 437 ECL signal in test [38]; 1090 ECL signal in [39]; 1300 ECL signal in test [40]. In addition, the values for the ECL signal in test [41], in [42] and in [43] were 1200 ECL signal, 1060 ECL signal and 1500, respectively.
